Data from patent publication US6458943 (INSTITUT NATIONAL DE LA SANTE ET DE LA RECHERCHE MEDICALE, dated 2002).

B1: mD52 bait (GAL4 DNA-binding domain fusion, pAS2-1mD52) (other, not shown: small tags and cut ends)
chain: MDRGEQGLLKTEPVAEEGEDAVTMLSAPEALTEEEQEELRRELTKVEEEIQTLSQVLAAKEKHLAELKRKLGISSLQEFKQNIAKGWQDVTATNAYKKTSETLSQAGQKASAAFSSVGSVITKKLEDVKNSPTFKSFEEKVENLKSKVGGAKPAGGDFGEVLNSTANATSTMTTEPPPEQMTESP
notes: Fusion expressed in yeast; also called full-length mD52 bait
B2: mD52(1-95) bait (GAL4 DNA-binding domain fusion, pAS2-1mD52(1-95)) (other)
chain: MKLLSSIEQACDICRLKKLKCSKEKPKCAKCLKNNWECRYSPKTKRSPLTRAHLTEVESRLERLEQLFLLIFPREDLDMILKMDSLQDIKALLTGLFVQDNVNKDAVTDRLASVETDMPLTLRQHRISATSSSEESSNKGQRQLTVSMDRGEQGLLKTEPVAEEGEDAVTMLSAPEALTEEEQEELRRELTKVEEEIQTLSQVLAAKEKHLAELKRKLGISSLQEFKQNIAKGWQDVTATNA
notes: also called N-terminal half of mD52
B3: hD53 library interactor, pAD-GAL4 clone beginning at nt 204 of the hD53 cDNA (Leu9) (other)
chain: PSALFGGANFNQSGNIADSSLSFTFTNSSNGPNLITTQTNSQALSQPIASSNVHDNFMNNEITASKIDDGNNSKPLSPGWTDQTAYNAFGITTGMFNTTTMDDVYNYLFDDEDTPPNPKKELETEPLQGTDEDAVASADFSSMLSEEEKEELKAELVQLEDEITTLRQVLSAKERHLVEIKQKLGMNLMNELKQNFSKSWHDMQTTTAYKKTHETLSHAGQKATAAFSNVGTAISKKFGDMSYSIRHSISMPAMRNSPTFKSFEERVETTVTSLKTKVGGTNPNGGSFEEVLSSTAHASAQSLAGGSRRTKEEELQC
notes: range 761-881; The clone lacks hD53 residues 1-8 (starts at Leu9); Found with the hD53 bait in Y190 and with the hD52 bait in Hf7c; also called nt 204 (Leu^9)
B4: hD52 library interactor, pAD-GAL4 clone beginning at nt 60 of the hD52 cDNA (<Met1) (other)
chain: PSALFGGANFNQSGNIADSSLSFTFTNSSNGPNLITTQTNSQALSQPIASSNVHDNFMNNEITASKIDDGNNSKPLSPGWTDQTAYNAFGITTGMFNTTTMDDVYNYLFDDEDTPPNPKKEMDRGEQGLLRTDPVPEEGEDVAATISATETLSEEEQEELRRELAKVEEEIQTLSQVLAAKEKHLAEIKRKLGINSLQELKQNIAKGWQDVTATSAYKKTSETLSQAGQKASAAFSSVGSVITKKLEDVKNSPTFKSFEEKVENLKSKVGGTKPAGGDFGEVLNSAANASATTTEPLPEKTQESL
notes: range 761-881; also called nt 60 (<Met^1)
B5: RING10 proteasome subunit library interactor (pAD-GAL4 construct, GenBank accession no. X62598) (other, UniProt P04386 761-881, looked up)
chain: PSALFGGANFNQSGNIADSSLSFTFTNSSNGPNLITTQTNSQALSQPIASSNVHDNFMNNEITASKIDDGNNSKPLSPGWTDQTAYNAFGITTGMFNTTTMDDVYNYLFDDEDTPPNPKKETTTLAFKFQHGVIAAVDSRASAGSYISALRVNKVIEINPYLLGTMSGCAADCQYWERLLAKECRLYYLRNGERISVSAASKLLSNMMCQYRGMGLSMGSMICGWDKKGPGLYYVDEHGTRLSGNMFSTGSGNTYAYGVMDSGYRPNLSPEEAYDLGRRAIAYATHRDSYSGGVVNMYHMKEDGWVKVESTDVSDLLHQYREANQ
notes: False positive of the Hf7c screen
B6: hD52 bait (GAL4 DNA-binding domain fusion, pAS2-1hD52) (other)
chain: MKLLSSIEQACDICRLKKLKCSKEKPKCAKCLKNNWECRYSPKTKRSPLTRAHLTEVESRLERLEQLFLLIFPREDLDMILKMDSLQDIKALLTGLFVQDNVNKDAVTDRLASVETDMPLTLRQHRISATSSSEESSNKGQRQLTVSMDRGEQGLLRTDPVPEEGEDVAATISATETLSEEEQEELRRELAKVEEEIQTLSQVLAAKEKHLAEIKRKLGINSLQELKQNIAKGWQDVTATSAYKKTSETLSQAGQKASAAFSSVGSVITKKLEDVKNSPTFKSFEEKVENLKSKVGGTKPAGGDFGEVLNSAANASATTTEPLPEKTQESL
notes: Fusion expressed in yeast; also called full-length hD52 bait

Key:
[1] = molecular target: T1, hD54+ins2 interactor (GAL4 activation domain fusion, pACT2hD54+ins2) (human, UniProt P04386 768-881 (Saccharomyces cerevisiae entry)); assay: yeast two-hybrid, Y190 co-transfectants, HIS3/lacZ reporters; interactor (GAL4-AD fusion) against bait (GAL4-DB fusion)
T1 construct: range 768-881
Experimental: (§1) Interactions between baits and interactors were assessed by qualitatively and/or quantitatively determining HIS3 and/or lacZ reporter gene activity in Y190 co-transfectants.
(§2) Interactions between D52-like proteins within the yeast two-hybrid system, as measured by quantitative β-galactosidase assays. […] Three (or two*) colonies from each co-transfected Y190 strain were cultured in the absence of histidine, and assayed separately for β-galactosidase activity (see Methods). The mean number of β-galactosidase activity units obtained for each co-transfection is presented, ± the standard error.

[2] = molecular target: T2, mD52(1-163) interactor (GAL4 activation domain fusion, pACT2mD52(1-163)) (mouse, UniProt P04386 768-881 (Saccharomyces cerevisiae entry)); assay: as above
T2 construct: range 768-881
T2 sequence: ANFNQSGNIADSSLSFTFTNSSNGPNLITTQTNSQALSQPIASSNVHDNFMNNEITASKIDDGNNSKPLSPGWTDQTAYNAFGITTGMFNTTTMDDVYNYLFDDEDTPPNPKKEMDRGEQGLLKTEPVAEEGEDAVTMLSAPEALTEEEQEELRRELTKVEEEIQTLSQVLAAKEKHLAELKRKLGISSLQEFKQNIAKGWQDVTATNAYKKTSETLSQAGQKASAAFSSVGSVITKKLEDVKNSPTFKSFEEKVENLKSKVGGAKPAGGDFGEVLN
Experimental: as §1, §2

[3] = molecular target: T3, hD53 interactor (GAL4 activation domain fusion, pACT2hD53) (human, UniProt P04386 768-881 (Saccharomyces cerevisiae entry)); assay: as above
T3 construct: range 768-881
T3 sequence: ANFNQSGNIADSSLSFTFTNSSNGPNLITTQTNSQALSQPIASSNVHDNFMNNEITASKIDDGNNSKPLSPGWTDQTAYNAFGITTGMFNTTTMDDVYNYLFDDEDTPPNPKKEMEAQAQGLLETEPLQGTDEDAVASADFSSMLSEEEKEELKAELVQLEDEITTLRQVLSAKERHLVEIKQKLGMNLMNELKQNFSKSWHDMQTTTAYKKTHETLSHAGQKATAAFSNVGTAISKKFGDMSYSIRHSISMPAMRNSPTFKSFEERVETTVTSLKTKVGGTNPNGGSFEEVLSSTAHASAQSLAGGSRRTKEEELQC
Experimental: as §1, §2

[4] = molecular target: T4, hD52 interactor (GAL4 activation domain fusion, pAD-GAL4hD52) (human, UniProt P04386 761-881 (Saccharomyces cerevisiae entry)); assay: as above
T4 construct: range 761-881; also called hD52^c
T4 sequence: B4 chain
Experimental: as §1, §2

[5] = molecular target: T5, hD54-ins2 interactor (GAL4 activation domain fusion, pACT2hD54-ins2) (human, UniProt P04386 768-881 (Saccharomyces cerevisiae entry)); assay: as above
T5 construct: range 768-881
Experimental: as §1, §2

[6] = molecular target: T3, hD53 interactor (GAL4 activation domain …); assay: yeast two-hybrid in Y190, β-galactosidase assay
Experimental: Interactions between baits and interactors were assessed by qualitatively and/or quantitatively determining HIS3 and lacZ reporter gene activity in Y190 co-transfectants. Reporter gene activities were assessed qualitatively by observing the growth and color development of Y190 co-transfectants on solid SD media lacking His, Trp and Leu (SD/-His-Trp-Leu), and incorporating 0.07 M potassium phosphate pH 7, 35 mM 3-AT, and 40 µg/ml X-gal. For quantitative assessment of interactions, β-galactosidase activity was measured using the substrate o-nitrophenyl β-D-galactopyranoside (ONPG) in liquid cultures (SD/-His-Trp-Leu +35 mM 3-AT) of Y190 co-transfectants.

[7] = molecular target: B6; assay: yeast two-hybrid screening of a human breast carcinoma cDNA library in Hf7c (His+)
Experimental: (§3) Transformants were plated onto solid SD/-His-Trp-Leu (incorporating 35 mM 3-AT in the case of Y190 transformants) and incubated for up to 14 days at 30° C. After 3 initial days of growth, plates were inspected daily, and His+ colonies were transferred to SD/-His-Trp-Leu +0.07 M potassium phosphate pH 7+40 µg/ml X-gal plates which incorporated 35 mM 3-AT in the case of Y190 co-transformants. Colonies which remained His+, and in the case of Y190 co-transformants, were also lacZ+, were re-streaked onto fresh plates to check that all colonies were of uniform phenotype. After 6 days incubation at 30° C., yeast colonies were directly harvested, and plasmid DNA was isolated and used to transfect XL1 Blue. Mini-preparations of plasmid DNA were performed for at least 5 XL1 Blue colonies per transfection, with the results of restriction digests differentiating potential interactors from bait plasmids. […] Phenotypes of resulting co-transfectants were assayed quantitatively and/or qualitatively as described above.

[8] = molecular target: T6, hD53 bait (GAL4 DNA-binding domain fusion, pAS2-1hD53) (human, UniProt P04386 1-147 (Saccharomyces cerevisiae entry)); assay: yeast two-hybrid screening of a human breast carcinoma cDNA library in Y190 (His+ lacZ+)
T6 construct: Fusion expressed in yeast; also called full-length hD53 bait

[9] = molecular target: B6; assay: yeast two-hybrid, retransfection of Hf7c
Experimental: as §3

[10] = molecular target: T7, eukaryotic initiation factor 4AII library interactor (pAD-GAL4 construct, DNA Database of Japan accession no. … (human, UniProt P04386 761-881; Q14240 1-407, limits assumed); assay: yeast two-hybrid, retransfection of Hf7c
T7 construct: False positive of the Hf7c screen
Experimental: as §3

[11] = molecular target: T8, histidyl t-RNA synthetase library interactor (pAD-GAL4 construct, EBML accession no. Z 11518) (human, UniProt P04386 761-881; P12081 2-509, limits assumed); assay: yeast two-hybrid, retransfection of Hf7c
T8 construct: False positive of the Hf7c screen
T8 sequence (looked up): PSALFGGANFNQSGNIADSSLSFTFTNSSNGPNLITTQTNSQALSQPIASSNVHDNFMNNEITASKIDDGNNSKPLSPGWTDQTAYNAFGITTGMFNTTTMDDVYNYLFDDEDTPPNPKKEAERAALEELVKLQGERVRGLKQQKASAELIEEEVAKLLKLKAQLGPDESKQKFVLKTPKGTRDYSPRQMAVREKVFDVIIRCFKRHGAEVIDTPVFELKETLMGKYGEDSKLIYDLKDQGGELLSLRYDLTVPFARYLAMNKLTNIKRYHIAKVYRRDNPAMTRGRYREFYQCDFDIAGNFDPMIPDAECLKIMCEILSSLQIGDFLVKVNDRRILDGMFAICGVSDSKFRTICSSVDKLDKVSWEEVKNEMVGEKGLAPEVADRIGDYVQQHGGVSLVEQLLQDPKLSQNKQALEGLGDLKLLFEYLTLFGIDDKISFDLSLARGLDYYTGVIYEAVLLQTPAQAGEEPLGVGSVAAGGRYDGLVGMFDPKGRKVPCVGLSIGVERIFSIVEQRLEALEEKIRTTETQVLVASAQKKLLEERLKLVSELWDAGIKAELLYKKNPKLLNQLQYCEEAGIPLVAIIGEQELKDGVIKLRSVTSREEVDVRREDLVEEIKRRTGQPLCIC
Experimental: as §3

**Q.** Does B1 bind [1]?
**A.** binds

**Q.** Does B1 bind [2]?
**A.** binds

**Q.** Does B1 bind [3]?
**A.** binds

**Q.** Does B1 bind [4]?
**A.** binds

**Q.** Does B1 bind [5]?
**A.** binds

**Q.** Does B2 bind [6]?
**A.** binds

**Q.** Does B3 bind [7]?
**A.** binds

**Q.** Does B3 bind [8]?
**A.** binds

**Q.** Does B4 bind [7]?
**A.** binds

**Q.** Does B5 bind [9]?
**A.** no binding

**Q.** Does B6 bind [10]?
**A.** no binding

**Q.** Does B6 bind [11]?
**A.** no binding
